From publication PMC2995041

B1: 1SD*/2DD dsDNA 29 bp (dsDNA)
DNA 1: GCGCATATGGAGCGTTTCCAAAGTCTTAG
DNA 2: CTAAGACTTTGGAAACGCTCCATATGCGC

What was measured:
Test in all cases: EMSA
BLM HRDC domain WT [1] = biological target: T1, BLM HRDC domain WT (Homo sapiens, UniProt P54132 1210-1294)
BLM HRDC Y1237A = BLM HRDC Y1237A (Homo sapiens, UniProt P54132 1210-1294, Y1237A)
BLM HRDC T1243A = BLM HRDC T1243A (Homo sapiens, UniProt P54132 1210-1294, T1243A)
BLM HRDC domain WT [2] = biological target: T1, BLM HRDC domain WT; remark: listed apart in the source

T1 sequence (P54132 1210-1294): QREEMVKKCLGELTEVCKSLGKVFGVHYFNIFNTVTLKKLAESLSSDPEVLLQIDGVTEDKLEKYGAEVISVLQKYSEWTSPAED
Sequence of BLM HRDC Y1237A (P54132 1210-1294 Y1237A): as the sequence (P54132 1210-1294) above, with Y28A counted along it
Sequence of BLM HRDC T1243A (P54132 1210-1294 T1243A): as the sequence (P54132 1210-1294) above, with T34A counted along it

Row | Binder | Kd (BLM HRDC domain WT [1]) [µM] | binding result (BLM HRDC Y1237A) | binding result (BLM HRDC T1243A) | binding result (BLM HRDC domain WT [2])
1 | GCGCATATGGAGCGTTTCCAAAGTCTTAG (ssDNA) [1SD* ssDNA 29 nt] | ~100 | binds | binds | 
2 | B1 |  |  |  | no binding
